According to IntAct's records for PubMed 29892012:

B1: Structure-specific endonuclease subunit SLX4 (Homo sapiens), Q8IY92 (parent)
chain: MKLSVNEAQLGFYLGSLSHLSACPGIDPRSSEDQPESLKTGQMMDESDEDFKELCASFFQRVKKHGIKEVSGERKTQKAASNGTQIRSKLKRTKQTATKTKTLQGPAEKKPPSGSQAPRTKKQRVTKWQASEPAHSVNGEGGVLASAPDPPVLRETAQNTQTGNQQEPSPNLSREKTRENVPNSDSQPPPSCLTTAVPSPSKPRTAQLVLQRMQQFKRADPERLRHASEECSLEAAREENVPKDPQEEMMAGNVYGLGPPAPESDAAVALTLQQEFARVGASAHDDSLEEKGLFFCQICQKNLSAMNVTRREQHVNRCLDEAEKTLRPSVPQIPECPICGKPFLTLKSRTSHLKQCAVKMEVGPQLLLQAVRLQTAQPEGSSSPPMFSFSDHSRGLKRRGPTSKKEPRKRRKVDEAPSEDLLVAMALSRSEMEPGAAVPALRLESAFSERIRPEAENKSRKKKPPVSPPLLLVQDSETTGRQIEDRVALLLSEEVELSSTPPLPASRILKEGWERAGQCPPPPERKQSFLWEGSALTGAWAMEDFYTARLVPPLVPQRPAQGLMQEPVPPLVPPEHSELSERRSPALHGTPTAGCGSRGPSPSASQREHQALQDLVDLAREGLSASPWPGSGGLAGSEGTAGLDVVPGGLPLTGFVVPSQDKHPDRGGRTLLSLGLLVADFGAMVNNPHLSDVQFQTDSGEVLYAHKFVLYARCPLLIQYVNNEGFSAVEDGVLTQRVLLGDVSTEAARTFLHYLYTADTGLPPGLSSELSSLAHRFGVSELVHLCEQVPIATDSEGKPWEEKEAENCESRAENFQELLRSMWADEEEEAETLLKSKDHEEDQENVNEAEMEEIYEFAATQRKLLQEERAAGAGEDADWLEGGSPVSGQLLAGVQVQKQWDKVEEMEPLEPGRDEAATTWEKMGQCALPPPQGQHSGARGAEAPEQEAPEEALGHSSCSSPSRDCQAERKEGSLPHSDDAGDYEQLFSSTQGEISEPSQITSEPEEQSGAVRERGLEVSHRLAPWQASPPHPCRFLLGPPQGGSPRGSHHTSGSSLSTPRSRGGTSQVGSPTLLSPAVPSKQKRDRSILTLSKEPGHQKGKERRSVLECRNKGVLMFPEKSPSIDLTQSNPDHSSSRSQKSSSKLNEEDEVILLLDSDEELELEQTKMKSISSDPLEEKKALEISPRSCELFSIIDVDADQEPSQSPPRSEAVLQQEDEGALPENRGSLGRRGAPWLFCDRESSPSEASTTDTSWLVPATPLASRSRDCSSQTQISSLRSGLAVQAVTQHTPRASVGNREGNEVAQKFSVIRPQTPPPQTPSSCLTPVSPGTSDGRRQGHRSPSRPHPGGHPHSSPLAPHPISGDRAHFSRRFLKHSPPGPSFLNQTPAGEVVEVGDSDDEQEVASHQANRSPPLDSDPPIPIDDCCWHMEPLSPIPIDHWNLERTGPLSTSSPSRRMNEAADSRDCRSPGLLDTTPIRGSCTTQRKLQEKSSGAGSLGNSRPSFLNSALWDVWDGEEQRPPETPPPAQMPSAGGAQKPEGLETPKGANRKKNLPPKVPITPMPQYSIMETPVLKKELDRFGVRPLPKRQMVLKLKEIFQYTHQTLDSDSEDESQSSQPLLQAPHCQTLASQTYKPSRAGVHAQQEATTGPGAHRPKGPAKTKGPRHQRKHHESITPPSRSPTKEAPPGLNDDAQIPASQESVATSVDGSDSSLSSQSSSSCEFGAAFESAGEEEGEGEVSASQAAVQAADTDEALRCYIRSKPALYQKVLLYQPFELRELQAELRQNGLRVSSRRLLDFLDTHCITFTTAATRREKLQGRRRQPRGKKKVERN
partner: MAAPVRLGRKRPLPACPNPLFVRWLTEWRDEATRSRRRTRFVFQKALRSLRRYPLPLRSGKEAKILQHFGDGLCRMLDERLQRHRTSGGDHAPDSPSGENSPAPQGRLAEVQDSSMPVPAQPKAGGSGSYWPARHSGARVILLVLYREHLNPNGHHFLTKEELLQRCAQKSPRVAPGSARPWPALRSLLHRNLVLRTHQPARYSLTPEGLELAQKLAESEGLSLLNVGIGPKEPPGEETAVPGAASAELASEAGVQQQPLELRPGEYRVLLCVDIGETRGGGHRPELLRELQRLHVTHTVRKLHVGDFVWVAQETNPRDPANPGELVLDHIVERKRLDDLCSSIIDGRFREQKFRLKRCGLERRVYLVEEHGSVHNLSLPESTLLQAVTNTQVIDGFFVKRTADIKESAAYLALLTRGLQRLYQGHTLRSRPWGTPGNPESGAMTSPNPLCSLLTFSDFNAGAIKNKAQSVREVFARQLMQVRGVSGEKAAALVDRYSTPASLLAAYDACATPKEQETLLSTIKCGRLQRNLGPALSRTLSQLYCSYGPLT
B2: Vacuolar protein-sorting-associated protein 25 (Homo sapiens), Q9BRG1 (parent)
chain: MAMSFEWPWQYRFPPFFTLQPNVDTRQKQLAAWCSLVLSFCRLHKQSSMTVMEAQESPLFNNVKLQRKLPVESIQIVLEELRKKGNLEWLDKSKSSFLIMWRRPEEWGKLIYQWVSRSGQNNSVFTLYELTNGEDTEDEEFHGLDEATLLRALQALQQEHKAEIITVSDGRGVKFF
partner: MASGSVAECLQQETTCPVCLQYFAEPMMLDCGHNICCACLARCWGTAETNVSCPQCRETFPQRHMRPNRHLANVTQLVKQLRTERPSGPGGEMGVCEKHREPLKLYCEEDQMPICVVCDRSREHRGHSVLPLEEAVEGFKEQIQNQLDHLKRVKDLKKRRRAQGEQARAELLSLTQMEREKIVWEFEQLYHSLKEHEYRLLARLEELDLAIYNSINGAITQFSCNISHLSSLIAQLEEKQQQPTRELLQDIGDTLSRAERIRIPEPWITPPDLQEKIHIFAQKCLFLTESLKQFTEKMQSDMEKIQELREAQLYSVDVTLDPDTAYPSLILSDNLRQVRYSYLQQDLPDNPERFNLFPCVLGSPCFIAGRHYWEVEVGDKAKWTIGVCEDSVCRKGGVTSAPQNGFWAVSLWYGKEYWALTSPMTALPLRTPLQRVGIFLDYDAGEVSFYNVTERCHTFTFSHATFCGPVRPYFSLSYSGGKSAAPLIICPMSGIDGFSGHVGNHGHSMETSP
B3: Solute carrier family 35 member C2 (Homo sapiens), Q9NQQ7 (parent)
chain: MGRWALDVAFLWKAVLTLGLVLLYYCFSIGITFYNKWLTKSFHFPLFMTMLHLAVIFLFSALSRALVQCSSHRARVVLSWADYLRRVAPTALATALDVGLSNWSFLYVTVSLYTMTKSSAVLFILIFSLIFKLEELRAALVLVVLLIAGGLFMFTYKSTQFNVEGFALVLGASFIGGIRWTLTQMLLQKAELGLQNPIDTMFHLQPLMFLGLFPLFAVFEGLHLSTSEKIFRFQDTGLLLRVLGSLFLGGILAFGLGFSEFLLVSRTSSLTLSIAGIFKEVCTLLLAAHLLGDQISLLNWLGFALCLSGISLHVALKALHSRGDGGPKALKGLGSSPDLELLLRSSQREEGDNEEEEYFVAQGQQ
B4: CD151 antigen (Homo sapiens), P48509 (parent)
chain: MGEFNEKKTTCGTVCLKYLLFTYNCCFWLAGLAVMAVGIWTLALKSDYISLLASGTYLATAYILVVAGTVVMVTGVLGCCATFKERRNLLRLYFILLLIIFLLEIIAGILAYAYYQQLNTELKENLKDTMTKRYHQPGHEAVTSAVDQLQQEFHCCGSNNSQDWRDSEWIRSQEAGGRVVPDSCCKTVVALCGQRDHASNIYKVEGGCITKLETFIQEHLRVIGAVGIGIACVQVFGMIFTCCLYRSLKLEHY
B5: Ena/VASP-like protein (Homo sapiens), Q9UI08 (parent)
chain: MSEQSICQARASVMVYDDTSKKWVPIKPGQQGFSRINIYHNTASNTFRVVGVKLQDQQVVINYSIVKGLKYNQATPTFHQWRDARQVYGLNFASKEEATTFSNAMLFALNIMNSQEGGPSSQRQVQNGPSPDEMDIQRRQVMEQHQQQRQESLERRTSATGPILPPGHPSSAASAPVSCSGPPPPPPPPVPPPPTGATPPPPPPLPAGGAQGSSHDESSMSGLAAAIAGAKLRRVQRPEDASGGSSPSGTSKSDANRASSGGGGGGLMEEMNKLLAKRRKAASQSDKPAEKKEDESQMEDPSTSPSPGTRAASQPPNSSEAGRKPWERSNSVEKPVSSILSRTPSVAKSPEAKSPLQSQPHSRMKPAGSVNDMALDAFDLDRMKQEILEEVVRELHKVKEEIIDAIRQELSGISTT
partner: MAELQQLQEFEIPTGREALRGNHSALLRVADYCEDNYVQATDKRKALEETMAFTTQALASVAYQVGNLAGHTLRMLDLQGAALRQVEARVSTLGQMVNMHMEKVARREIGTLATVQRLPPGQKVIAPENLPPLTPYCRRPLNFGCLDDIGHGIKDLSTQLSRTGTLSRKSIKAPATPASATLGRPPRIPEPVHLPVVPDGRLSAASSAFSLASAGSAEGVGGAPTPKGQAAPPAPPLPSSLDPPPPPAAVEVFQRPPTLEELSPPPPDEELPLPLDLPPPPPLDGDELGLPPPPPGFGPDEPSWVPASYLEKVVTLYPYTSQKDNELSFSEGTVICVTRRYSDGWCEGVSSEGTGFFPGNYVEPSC

Variants of: B1
Details: with mus81_human MUS81, Q96NY9

Variant	effect of a mutation on the interaction
V886L	with no effect

Variants of: B2
Details: with tri27_human TRIM27, P14373

Variant	effect of a mutation on the interaction
P58Q	disrupting interaction strength

Variants of: B3
Details: with creb3_human CREB3, O43889
creb3_human CREB3, O43889, sequence (O43889 whole entry): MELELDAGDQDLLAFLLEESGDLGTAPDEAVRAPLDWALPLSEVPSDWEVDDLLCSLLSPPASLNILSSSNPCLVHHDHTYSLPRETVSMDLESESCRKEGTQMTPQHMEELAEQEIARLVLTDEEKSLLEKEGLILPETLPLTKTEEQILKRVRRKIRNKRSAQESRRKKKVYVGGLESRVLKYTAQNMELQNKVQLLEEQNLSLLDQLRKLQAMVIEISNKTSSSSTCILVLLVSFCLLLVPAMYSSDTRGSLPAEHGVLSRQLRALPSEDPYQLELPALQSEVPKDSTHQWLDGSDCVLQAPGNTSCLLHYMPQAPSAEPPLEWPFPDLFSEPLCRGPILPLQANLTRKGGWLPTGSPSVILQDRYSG

Variant	effect of a mutation on the interaction
G176S	with no effect

Variants of: B4
Details: with astrc_human GRAMD1C

Variant	effect of a mutation on the interaction
A67V	with no effect

Variants of: B4
Details: with astrc_human GRAMD1C
Remark: another data set of the same source

Variant	effect of a mutation on the interaction
S158T	with no effect

Variants of: B5
Details: with abi3_human ABI3, Q9P2A4

Variant	effect of a mutation on the interaction
R10Q	with no effect
